Results from patent US9725518B2, “Antibodies that bind to Jagged 1” (Cancer Research Technology Limited, priority 2013, dated 2017).

Columns and labels:
[1] = molecular target: T1, N1 binding to cell surface expressed hJ1 (Homo sapiens, UniProt P78504); test: Notch binding blocking assay (FACS): N1 EGF11-13 beads staining human J1-expressing cells; set-up: key: +: Complete blocking; X: No blocking
T1 construct: cell expressed full length human J1 (hJ1; HEK293 transfectants); expressed in transfected cells; host or cells: HEK293
T1 sequence (P78504 34-1218): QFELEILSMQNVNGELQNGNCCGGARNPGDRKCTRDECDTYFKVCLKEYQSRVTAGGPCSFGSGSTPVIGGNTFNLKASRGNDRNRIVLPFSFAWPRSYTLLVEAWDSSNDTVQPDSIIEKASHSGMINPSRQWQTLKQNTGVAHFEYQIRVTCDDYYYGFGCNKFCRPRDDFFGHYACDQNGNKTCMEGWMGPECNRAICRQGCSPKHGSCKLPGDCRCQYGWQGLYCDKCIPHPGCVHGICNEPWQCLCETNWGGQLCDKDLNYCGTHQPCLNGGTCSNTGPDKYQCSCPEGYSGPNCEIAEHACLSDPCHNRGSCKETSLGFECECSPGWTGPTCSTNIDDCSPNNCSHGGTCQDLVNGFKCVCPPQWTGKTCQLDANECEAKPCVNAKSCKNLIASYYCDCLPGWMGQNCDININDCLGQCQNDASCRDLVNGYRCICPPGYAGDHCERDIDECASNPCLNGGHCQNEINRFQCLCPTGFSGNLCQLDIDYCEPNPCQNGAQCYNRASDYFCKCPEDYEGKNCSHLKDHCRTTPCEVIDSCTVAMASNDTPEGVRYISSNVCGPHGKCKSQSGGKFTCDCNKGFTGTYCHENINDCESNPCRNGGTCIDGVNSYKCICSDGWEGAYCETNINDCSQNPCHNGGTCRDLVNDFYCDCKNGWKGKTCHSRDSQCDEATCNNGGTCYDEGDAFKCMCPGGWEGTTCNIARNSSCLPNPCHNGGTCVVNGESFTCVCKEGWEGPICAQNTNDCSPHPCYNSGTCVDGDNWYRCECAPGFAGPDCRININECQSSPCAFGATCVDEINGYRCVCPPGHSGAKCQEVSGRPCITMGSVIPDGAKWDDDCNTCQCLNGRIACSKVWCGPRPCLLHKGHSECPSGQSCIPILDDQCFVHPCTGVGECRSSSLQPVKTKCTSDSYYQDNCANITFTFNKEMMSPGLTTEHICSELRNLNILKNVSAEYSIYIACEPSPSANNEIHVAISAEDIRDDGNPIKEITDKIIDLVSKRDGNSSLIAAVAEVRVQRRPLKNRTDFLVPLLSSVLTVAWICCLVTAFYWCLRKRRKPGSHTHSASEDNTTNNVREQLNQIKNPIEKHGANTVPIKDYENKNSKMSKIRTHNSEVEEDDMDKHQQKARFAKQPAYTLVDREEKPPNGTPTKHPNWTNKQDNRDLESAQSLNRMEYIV
Protocol: To functionally identify mAbs with the capacity to disrupt the J1-N1 protein:protein interaction, hybridoma culture supernatants were tested in a FACS-based binding assay. Biotinylated soluble human N1 EGF11-13 recombinant protein was bound to avidin-coated beads and used to stain J1-expressing cells in the presence or absence of each mAb that recognised cell surface hJ1 by FACS. […] The four blocking antibodies of the invention were also able to block the binding of recombinant […] to a biotin-tagged J1 DSL-EGF3 recombinant protein in an ELISA assay (FIG. 1B). […] The four blocking mAbs of the invention were purified from serum-free culture supernatants and equal concentrations of purified antibodies were used to compare their activity in subsequent assays (unless hybridoma supernatant was specified). Sequence conservation across the DSL domain raised the possibility that the J1 mAbs may also be able to bind the Jagged 2 (J2) protein. Antibody binding specificity was initially tested by immunocytochemical labelling of cytospin samples of hJ1 and hJ2 transfectants (FIG. 2). All antibodies stained J1 transfectants but none stained the J2 transfected cells, and J2 expression in the same experiment was confirmed using a commercial anti-J2 antibody. The specificity of the purified mAbs was further investigated in mammalian cells transfected with hJ2, human Delta-like ligand 4 (hDLL4), or mJ1 (FIG. 3). Transfectants were FACS stained with 10 μg/ml of each of the four blocking mAbs.
To test the blocking efficiencies of the J1 mAbs, purified mAbs were titrated to determine the concentration required to block recombinant N1 binding to cell surface expressed hJ1. Beads coated with a bacterially-expressed N1 EGF11-13 protein were used to stain the hJ1-expressing cells in the presence of various concentrations of mAbs.
The FACS-based binding assay using biotinylated soluble human N1 EGF11-13 recombinant protein bound to avidin-coated fluorescent beads to stain J1-expressing cells was performed using a dilution series of each variant mAb to test their ability to block J1 binding to N1 by FACS (Table 7). […] Thus 12/16 J1-65D1 variants V1-12 and all J1-183D variants have the desired binding and blocking activity.
Human N1 EGF11-13 (411-526) was expressed in E. coli, refolded in vitro and labelled with purple fluorescent avidin-coated beads (Spherotech) as previously described. HEK293 cells transfected with human J1 or B16F10 cells transfected with mouse J1 were stained with N1 fluorescent beads in the presence of J1 antibody supernatants or purified antibody (murine, chimeric or humanised) diluted in HBBS/10% FCS. Cells were washed and re-suspended in staining buffer before being analysed with a FACSCalibur and data analysis with CellQuest. HEK293 cells transfected with human Jagged 2 and B16F10 cells transfected with human and mouse DLL4 were stained similarly to test blocking specificity.

[2] = Soluble aggregates of transiently expressed antibodies; assay type: physicochemical; details: Protein A purified antibody
Excerpt: The protein yield of these antibodies, their levels of soluble aggregates and their binding affinity to the immunogen (J1-DE3) are illustrated in (Table 6).

[3] = final antibody concentration 0.2 μg/ml
[4] = final antibody concentration 0.4 μg/ml
[5] = final antibody concentration 0.6 μg/ml
[6] = final antibody concentration 1.0 μg/ml

Row | Molecule | Blocking of Notch1 binding to cell surface Jagged 1 [1, 3] | Blocking of Notch1 binding to cell surface Jagged 1 [1, 4] | Blocking of Notch1 binding to cell surface Jagged 1 [1, 5] | Blocking of Notch1 binding to cell surface Jagged 1 [1, 6] | % soluble aggregate [2] [%]
1 | J1-183D variant 2: humanised/de-immunised J1-183D: J1-183D_VL_1 + J1-183D_VH_2 (antibody, V domains shown) VH: QVQLVQSGAELKKPGASVKVSCKVSGYAFTDYAIHWIRQAPGQGLEWMGIINTYYGDSKYAQKFQGRVTMTVDTSTSTAYMELSSLRSEDTAVYYCARGYDGFAYWGQGTLVTVSSASTKGP VL: DIQMTQSPSSLSASVGDRVTITCRTSENIYSYLTWYQQKPGKAPKLLVYNAKILAAGVPSRFSGSGSGTDFTLTISSLQPEDFATYYCQHHYDIPWTFGGGTKLEIKRT | X | + (Complete blocking) | + (Complete blocking) | + (Complete blocking) | 3.58
2 | J1-183D variant 6: humanised/de-immunised J1-183D: J1-183D_VL_2 + J1-183D_VH_2 (antibody, V domains shown) VH: QVQLVQSGAELKKPGASVKVSCKVSGYAFTDYAIHWIRQAPGQGLEWMGIINTYYGDSKYAQKFQGRVTMTVDTSTSTAYMELSSLRSEDTAVYYCARGYDGFAYWGQGTLVTVSSASTKGP VL: DIQMTQSPSSLSASVGDRVTITCRTSENIYSYLTWYQQKPGKAPKLLIYNAKTLASGVPSRFSGSGSGTDFTLTISSLQPEDFATYYCQHHYDIPWTFGGGTKLEIKRT | X | + (Complete blocking) | + (Complete blocking) | + (Complete blocking) | 4.6
3 | J1-183D variant 4: humanised/de-immunised J1-183D: J1-183D_VL_1 + J1-183D_VH_4 (antibody, V domains shown) VH: QVQLVQSGAEVKKPGASVKVSCKASGYTFTDYAIHWVRQAPGQGLEWMGIINTYYGDSKYAQKFQGRVTMTVDTSTSTAYMELSSLRSEDTAVYYCARGYDGFAYWGQGTLVTVSSASTKGP VL: DIQMTQSPSSLSASVGDRVTITCRTSENIYSYLTWYQQKPGKAPKLLVYNAKILAAGVPSRFSGSGSGTDFTLTISSLQPEDFATYYCQHHYDIPWTFGGGTKLEIKRT | X | + (Complete blocking) | + (Complete blocking) | + (Complete blocking) | 0.85
4 | J1-183D variant 11: humanised/de-immunised J1-183D: J1-183D_VL_3 + J1-183D_VH_3 (antibody, V domains shown) VH: QVQLVQSGAELKKPGASVKVSCKVSGYAFTDYAIHWVRQAPGQGLEWMGIINTYYGDSKYAQKFQGRVTMTVDTSTSTAYMELSSLRSEDTAVYYCARGYDGFAYWGQGTLVTVSSASTKGP VL: DIQMTQSPSSLSASVGDRVTITCRTSENIYSYLTWYQQKPGKAPKLLIYNAKILDSGVPSRFSGSGSGTDFTLTISSLQPEDFATYYCQHHYDIPWTFGGGTKLEIKRT | X | + (Complete blocking) | + (Complete blocking) | + (Complete blocking) | 2.5
5 | J1-183D variant 3: humanised/de-immunised J1-183D: J1-183D_VL_1 + J1-183D_VH_3 (antibody, V domains shown) VH: QVQLVQSGAELKKPGASVKVSCKVSGYAFTDYAIHWVRQAPGQGLEWMGIINTYYGDSKYAQKFQGRVTMTVDTSTSTAYMELSSLRSEDTAVYYCARGYDGFAYWGQGTLVTVSSASTKGP VL: DIQMTQSPSSLSASVGDRVTITCRTSENIYSYLTWYQQKPGKAPKLLVYNAKILAAGVPSRFSGSGSGTDFTLTISSLQPEDFATYYCQHHYDIPWTFGGGTKLEIKRT | X | + (Complete blocking) | + (Complete blocking) | + (Complete blocking) | 2.87
6 | J1-183D variant 10: humanised/de-immunised J1-183D: J1-183D_VL_3 + J1-183D_VH_2 (antibody, V domains shown) VH: QVQLVQSGAELKKPGASVKVSCKVSGYAFTDYAIHWIRQAPGQGLEWMGIINTYYGDSKYAQKFQGRVTMTVDTSTSTAYMELSSLRSEDTAVYYCARGYDGFAYWGQGTLVTVSSASTKGP VL: DIQMTQSPSSLSASVGDRVTITCRTSENIYSYLTWYQQKPGKAPKLLIYNAKILDSGVPSRFSGSGSGTDFTLTISSLQPEDFATYYCQHHYDIPWTFGGGTKLEIKRT | X | + (Complete blocking) | + (Complete blocking) | + (Complete blocking) | 2.89
7 | J1-183D variant 13: humanised/de-immunised J1-183D: J1-183D_VL_4 + J1-183D_VH_1 (antibody, V domains shown) VH: QVQLVQSGAELKKPGASVKVSCKVSGYAFTDYAIHWIRQAPGQGLEWMGIINTYYGDSKYNQKFKDRVTMTVDKSTSTAYMELSSLRSEDTAVYYCARGYDGFAYWGQGTLVTVSSASTKGP VL: DIQMTQSPSSLSASVGDRVTITCRTSENIYSYLTWYQQKPGKAPKLLIYHAKILDSGVPSRFSGSGSGTDFTLTISSLQPEDFATYYCQHHYDIPWTFGGGTKLEIKRT | X | + (Complete blocking) | + (Complete blocking) | + (Complete blocking) | 3.43
8 | J1-183D variant 7: humanised/de-immunised J1-183D: J1-183D_VL_2 + J1-183D_VH_3 (antibody, V domains shown) VH: QVQLVQSGAELKKPGASVKVSCKVSGYAFTDYAIHWVRQAPGQGLEWMGIINTYYGDSKYAQKFQGRVTMTVDTSTSTAYMELSSLRSEDTAVYYCARGYDGFAYWGQGTLVTVSSASTKGP VL: DIQMTQSPSSLSASVGDRVTITCRTSENIYSYLTWYQQKPGKAPKLLIYNAKTLASGVPSRFSGSGSGTDFTLTISSLQPEDFATYYCQHHYDIPWTFGGGTKLEIKRT | X | + (Complete blocking) | + (Complete blocking) | + (Complete blocking) | 3.92
9 | J1-183D variant 5: humanised/de-immunised J1-183D: J1-183D_VL_2 + J1-183D_VH_1 (antibody, V domains shown) VH: QVQLVQSGAELKKPGASVKVSCKVSGYAFTDYAIHWIRQAPGQGLEWMGIINTYYGDSKYNQKFKDRVTMTVDKSTSTAYMELSSLRSEDTAVYYCARGYDGFAYWGQGTLVTVSSASTKGP VL: DIQMTQSPSSLSASVGDRVTITCRTSENIYSYLTWYQQKPGKAPKLLIYNAKTLASGVPSRFSGSGSGTDFTLTISSLQPEDFATYYCQHHYDIPWTFGGGTKLEIKRT | X | + (Complete blocking) | + (Complete blocking) | + (Complete blocking) | 4.38
